Measured values published in article PMC6082575.

Assays:
[1] = biological target: C-X-C chemokine receptor type 4 (mouse, on cultured hippocampal neurons) (mouse (endogenous in cultured hippocampal neurons)) (UniProt P70658)
[2] = biological target: C-X-C chemokine receptor type 4 (mouse, on cultured hippocampal neurons) (mouse (endogenous in cultured hippocampal neurons)) (UniProt P70658); remark: listed apart in the source
[3] = biological target: C-X-C chemokine receptor type 4 (feline, on cultured hippocampal neurons) (cat (endogenous in cultured feline hippocampal neurons)) (UniProt P56498)
Chain of UniProt P56498 (P56498 whole entry): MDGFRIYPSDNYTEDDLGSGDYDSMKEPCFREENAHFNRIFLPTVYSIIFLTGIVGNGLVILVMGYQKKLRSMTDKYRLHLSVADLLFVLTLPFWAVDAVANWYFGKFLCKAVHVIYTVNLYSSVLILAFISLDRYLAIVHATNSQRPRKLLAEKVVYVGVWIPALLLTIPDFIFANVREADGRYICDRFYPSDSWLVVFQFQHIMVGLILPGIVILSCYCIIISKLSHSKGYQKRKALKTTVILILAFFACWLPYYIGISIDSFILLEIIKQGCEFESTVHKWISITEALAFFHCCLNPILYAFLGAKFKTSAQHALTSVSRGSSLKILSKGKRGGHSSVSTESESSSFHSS

Chain of UniProt P70658 (P70658 whole entry): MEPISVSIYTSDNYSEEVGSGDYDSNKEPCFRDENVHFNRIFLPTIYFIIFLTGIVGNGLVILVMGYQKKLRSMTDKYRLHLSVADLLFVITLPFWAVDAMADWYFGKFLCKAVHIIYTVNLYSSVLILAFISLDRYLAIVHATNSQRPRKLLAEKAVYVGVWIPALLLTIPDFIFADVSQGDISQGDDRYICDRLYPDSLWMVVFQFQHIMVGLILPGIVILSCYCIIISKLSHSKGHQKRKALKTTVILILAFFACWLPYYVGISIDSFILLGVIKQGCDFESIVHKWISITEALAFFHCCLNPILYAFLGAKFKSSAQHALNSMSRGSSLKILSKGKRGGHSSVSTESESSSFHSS

In the case of “stromal cell-derived factor-1 (from UniProt P48061 22-93) (ligand)”, the normalised total Ca2+ activity (GCaMP5 imaging) in cultured mouse hippocampal neurons treated with 20-nM SDF-1 and 200-nM AMD3100 (CXCR4 antagonist) [1] is reported as 1.26 ΔF/Fmin.

In the case of “HIV-1 IIIB gp120 Recombinant Protein (from UniProt P04578 33-511) (ligand)”, the normalised total Ca2+ activity (GCaMP5 imaging) in cultured mouse hippocampal neurons treated with 1-nM gp120 (IIIB) and 200-nM AMD3100 (CXCR4 antagonist) [1] is reported as 0.85 ΔF/Fmin.

With “FIV envelope glycoprotein gp95 (Fc fusion)” the normalised total Ca2+ activity (GCaMP5 imaging) in cultured mouse hippocampal neurons treated with 1-nM gp95 and 200-nM AMD3100 (CXCR4 antagonist) [2] was 1.18 ΔF/Fmin and the normalised total Ca2+ activity (GCaMP5 imaging) in cultured feline hippocampal neurons treated with 1-nM gp95 and 200-nM AMD3100 (CXCR4 antagonist) [3] was 0.99 ΔF/Fmin.
